Results taken from patent publication US20240174760A1 (ZHEJIANG NANOMAB TECHNOLOGY CENTER, published 2024).
Like-named read-outs stand apart in the source and are kept apart here.

T1: human BCMA his tag protein (Acrobiosystems, BCA-H522y) (human, UniProt Q02223 1-54)
T1 construct: Bought protein; also called BCMA/TNFR-His; human recombinant BCMA his tag; not shown: his tag
T1 sequence (looked up): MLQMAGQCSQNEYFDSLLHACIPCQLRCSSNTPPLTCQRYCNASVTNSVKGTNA

T2: human BCMA full-length protein on cells (human, UniProt Q02223 1-184)
T2 construct: whole, on cells; also called CHO-K1/BCMA; BCMA on RPMI8226, Jeko-1, Daudi cells
T2 sequence (looked up): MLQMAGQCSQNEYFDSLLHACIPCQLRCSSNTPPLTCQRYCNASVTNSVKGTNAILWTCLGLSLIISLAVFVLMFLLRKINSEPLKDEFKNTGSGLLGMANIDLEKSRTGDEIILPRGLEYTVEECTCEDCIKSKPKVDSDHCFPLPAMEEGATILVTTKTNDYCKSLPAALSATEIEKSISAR


What was measured:
[1] = target: human BCMA his tag protein (Acrobiosystems, BCA-H522y) (human) (UniProt Q02223); test: comp. ELISA, competitor biotin-BAFF (ligand signal), Ab 78 ug/mL
[2] = target: human BCMA his tag protein (Acrobiosystems, BCA-H522y) (human) (UniProt Q02223); test: comp. ELISA, competitor biotin-APRIL (ligand signal), Ab 78 ug/mL
[3] = target: human BCMA his tag protein (Acrobiosystems, BCA-H522y) (human) (UniProt Q02223); test: comp. ELISA, competitor biotin-BAFF (ligand signal), Ab 19.5 ug/mL
[4] = target: human BCMA his tag protein (Acrobiosystems, BCA-H522y) (human) (UniProt Q02223); test: comp. ELISA, competitor biotin-APRIL (ligand signal), Ab 19.5 ug/mL
[5] = target: human BCMA his tag protein (Acrobiosystems, BCA-H522y) (human) (UniProt Q02223); test: comp. ELISA, competitor biotin-BAFF (ligand signal), Ab 1.218 ug/mL
[6] = target: human BCMA his tag protein (Acrobiosystems, BCA-H522y) (human) (UniProt Q02223); test: comp. ELISA, competitor biotin-BAFF (ligand signal), Ab 4.875 ug/mL
[7] = target: human BCMA his tag protein (Acrobiosystems, BCA-H522y) (human) (UniProt Q02223); test: comp. ELISA, competitor biotin-APRIL (ligand signal), Ab 1.218 ug/mL
[8] = target: human BCMA his tag protein (Acrobiosystems, BCA-H522y) (human) (UniProt Q02223); test: comp. ELISA, competitor biotin-APRIL (ligand signal), Ab 4.875 ug/mL
[9] = target: T1, human BCMA his tag protein …; test: comp. ELISA, competitor biotin-BAFF (ligand signal), Ab 78 ug/mL
Protocol: (§1) Plates (Corning) were coated with 2 μg/mL human BCMA his tag protein (Acrobiosystems, BCA-H522y) overnight at 4° C. After blocking and washing, 50 μL diluted antibodies (78 μg/mL, 19.5 μg/mL, 4.875 μg/mL, 1.218 μg/mL) and 50 μL biotin-labeled 1 μg/mL APRIL (Acrobiosystems, APL-H82F5) or 1.25 μg/mL BAFF (Acrobiosystems, BAF-H82F3) ligand were added to each well, and incubated at 37° C. for 1 hour. After washing 3 times, 100 μL HRP-labeled streptavidin (Biolegend, 405210) diluted 1:2000 was added to each well, and incubated at 37° C. for 30 minutes. After washing, 100 μL TMB substrate (Abeam, ab171524) was added to each well and developed for 5 minutes and the reaction was stopped by 3M HCl. The absorbance value at […] was read using a microplate reader (Tecan, SPARK).

[10] = target: T1, human BCMA his tag protein …; test: comp. ELISA, competitor biotin-APRIL (ligand signal), Ab 78 ug/mL
Protocol: as §1

[11] = target: T1, human BCMA his tag protein …; test: comp. ELISA, competitor biotin-BAFF (ligand signal), Ab 19.5 ug/mL
Protocol: as §1

[12] = target: T2, human BCMA full-length protein on cells; test: flow cytometry on RPMI8226 cells, anti-human IgG PE [A&B) A]
Protocol: The EC50 of the antibody was calculated by fitting the curve.

[13] = target: T1, human BCMA his tag protein …; test: comp. ELISA, competitor biotin-APRIL (ligand signal), Ab 19.5 ug/mL
Protocol: as §1

[14] = target: T1, human BCMA his tag protein …; test: comp. ELISA, competitor biotin-BAFF (ligand signal), Ab 1.218 ug/mL
Protocol: as §1

[15] = target: T1, human BCMA his tag protein …; test: comp. ELISA, competitor biotin-BAFF (ligand signal), Ab 4.875 ug/mL
Protocol: as §1

[16] = target: T1, human BCMA his tag protein …; test: comp. ELISA, competitor biotin-APRIL (ligand signal), Ab 1.218 ug/mL
Protocol: as §1

[17] = target: T1, human BCMA his tag protein …; test: comp. ELISA, competitor biotin-APRIL (ligand signal), Ab 4.875 ug/mL
Protocol: as §1

[18] = target: T2, human BCMA full-length protein on cells; test: flow cytometry competition on CHO-K1/BCMA cells; antibody titrated against biotin-APRIL, PE streptavidin readout
Protocol: (§2) In a 96-well non-adsorption deep-well plate, the purified antibody and the control antibody were diluted to 1000 nM with DPBS, and then serially diluted to 8 concentration with 3-fold dilution. Biotin-APRIL was diluted to 4 μg/mL with DPBS. 50 μL the antibody diluted in the previous step or DPBS (Blank, Blank-PE tube), respectively, was added to the wells of a non-adsorption 96-well plate having 5×10⁵ CHO-K1/BCMA cells that overexpressed human BCMA, and then the 50 μL diluted APRIL in the previous step was added and mixed, incubated at 4° C. for 40 min. After washing once with pre-cooled DPBS, 150 μL PE Streptavidin (Biolegend, 405210) diluted with DPBS at 1:500 was added to each well, the cells were resuspended, and incubated at 4° C. for 30 min. After 30 minutes, centrifuged at 220 g for 5 minutes at 4° C., the supernatant was discarded, 200 μL pre-cooled DPBS washing solution was added to each well, the cells were resuspended by gently pipetting with a multichannel pipette, centrifuged at 220 g for 5 minutes, the supernatant was discarded, and the washing step was repeated one time. After 2 times of washing, the cells were resuspended in DPBS and detected by a flow analyzer (Beckman, Cytoflex). […]

[19] = target: T2, human BCMA full-length protein on cells; test: as above; remark: listed apart in the source
Protocol: as §2

| OD450 [1] | OD450 [2] | OD450 [3] | OD450 [4] | OD450 [5] | OD450 [6] | OD450 [7] | OD450 [8] | OD450 [9] | OD450 [10] | OD450 [11] | EC50 [12] | OD450 [13] | OD450 [14] | OD450 [15] | OD450 [16] | OD450 [17] | IC50 [18] | IC50 [19] | Molecule |
| --- | --- | --- | --- | --- | --- | --- | --- | --- | --- | --- | --- | --- | --- | --- | --- | --- | --- | --- | --- |
| 3.24 OD450 | 3.04 OD450 | 3.28 OD450 | 2.99 OD450 | 3.38 OD450 | 3.29 OD450 | 2.89 OD450 | 3.07 OD450 | – | – | – | – | – | – | – | – | – | – | – | Isotype-2 (antibody) |
| – | – | – | – | – | – | – | – | 0.03 OD450 | 0.05 OD450 | 0.31 OD450 | 5.7 nM | 0.31 OD450 | 3.39 OD450 | 3.32 OD450 | 3.1 OD450 | 2.9 OD450 | 89.6 nM | 81.8 nM | BMK1 (scFv, also called positive control antibody; BMK control antibody) scFv: DIVLTQSPASLAVSLGKRATINCRASESVSVIGAHLIHWYQQKPGQPPKLLIYLASNLETGVPARFSGSGSGTDFTLTISSLQAEDAAIYYCLQSRIFPRTFGGGTKLEIKGSTSGSGKPGSGEGSTKGQVQLVQSGSELKKPGASVKVSCKASGYTFTDYSINWVRQAPGQGLEWMGWINTETREPAYAYDFRGRFVFSLDTSVSTAYLQISSLKAEDTAVYYCARDYSYAMDYWGQGTLVTVSS |
